Among the data in PMC2566870 are stoichiometry N values, retold here.

Experiment in all cases: SEC
Assay [1] deals with Hera_CTD (C-terminal domain of Hera, amino acids 370-511) (Thermus thermophilus HB27).
Assay [2] has as its target Hera_E115C/R260C (Thermus thermophilus HB27).
In assay [3] the target is Hera_core (aa 1-365) (Thermus thermophilus HB27).
The target of assay [4] is Hera_core_E115C/R260C (Thermus thermophilus HB27).
The target of assay [5] is Thermus thermophilus DEAD box helicase Hera, wild-type (Thermus thermophilus HB27) (UniProt Q72GF3).

The stoichiometry N is a count of units in the complex or per binding partner. The substance “Hera_CTD (C-terminal domain of Hera, amino acids 370-511) (domain or fragment)” returned a stoichiometry N in assay [1] of 2.

Hera_E115C/R260C (enzyme) displayed a stoichiometry N in assay [2] of 2.

In assay [3], “Hera_core (aa 1-365) (domain or fragment)” yielded a stoichiometry N of 2.

In the case of “Hera_core_E115C/R260C (domain or fragment)”, the stoichiometry N in assay [4] came out at 2.

The substance “Thermus thermophilus DEAD box helicase Hera, wild-type (from UniProt Q72GF3 1-517) (enzyme)” returned a stoichiometry N in assay [5] of 2.
